Results from article PMC8422075 (EMBO Molecular Medicine, 2021).

Biological target: T1, Human LAG3_(23–434) (human, UniProt P18627 23-434, fluorescently labelled (fluorophore and site not named))
T1 construct: Used only in the microfluidic diffusional sizing; also called labelled LAG3; source: bought: BonOpusBio (#CJ91)
T1 sequence (looked up): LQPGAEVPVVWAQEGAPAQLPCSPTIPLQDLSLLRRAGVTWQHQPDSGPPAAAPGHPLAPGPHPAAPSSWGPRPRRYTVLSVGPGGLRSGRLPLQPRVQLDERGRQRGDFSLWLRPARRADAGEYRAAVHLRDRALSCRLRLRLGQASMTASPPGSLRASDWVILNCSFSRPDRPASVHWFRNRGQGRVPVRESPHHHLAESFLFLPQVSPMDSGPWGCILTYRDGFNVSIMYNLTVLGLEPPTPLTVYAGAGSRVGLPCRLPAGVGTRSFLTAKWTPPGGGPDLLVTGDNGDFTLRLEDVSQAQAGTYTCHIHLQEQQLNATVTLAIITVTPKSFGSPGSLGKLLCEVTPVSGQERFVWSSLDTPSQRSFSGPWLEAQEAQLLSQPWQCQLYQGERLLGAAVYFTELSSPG
Assay: microfluidic diffusional sizing; fluorescently labelled protein (10 nM-10 µM) in solution, unlabelled ligand varied; PBS with 0.01% Tween-20; 60 min at room temperature; hydrodynamic radius read out; KD from Langmuir binding isotherm
Conditions: both partners purified

B1: FGL1 Protein, Human, Recombinant (ligand, UniProt Q08830 23-312, looked up)
chain: LEDCAQEQMRLRAQVRLLETRVKQQQVKIKQLLQENEVQFLDKGDENTVIDLGSKRQYADCSEIFNDGYKLSGFYKIKPLQSPAEFSVYCDMSDGGGWTVIQRRSDGSENFNRGWKDYENGFGNFVQKHGEYWLGNKNLHFLTTQEDYTLKIDLADFEKNSRYAQYKNFKVGDEKNFYELNIGEYSGTAGDSLAGNFHPEVQWWASHQRMKFSTWDRDHDNYEGNCAEEDQSGWWFNRCHSANLNGVYYSGPYTAKTDNGIVWYTWHGWWYSLKSVVMKIRPNDFIPNVI
notes: Fibrinogen-like protein 1, human, recombinant; source: bought: Sino Biological (13484‐H08B)
Kd: 232 ± 79 nM
